These results are taken from publication PMC5040251, “The Structure of Treponema pallidum Tp0751 (Pallilysin) Reveals a Non-canonical Lipocalin Fold That Mediates Adhesion to Extracellular Matrix Components and Interactions with Host Cells” (PLoS Pathogens, 2016).

Experiment [1] deals with collagen type IV. The experiment is described as follows: Initial (single point) binding screen of Tp0751 peptide library to immobilized collagen type IV. Particulars: immobilized human collagen type IV; absorbance 600 nm, three wells, two independent experiments; Student's two-tailed t-test against non-binding peptides. The procedure: (§1) Fig 3 Tp0751 lipocalin derived peptides directly bind host proteins. (A) Thirteen overlapping Tp0751 synthetic 24-mer peptides were evaluated for binding to immobilized fibrinogen, fibronectin, collagen type I, and collagen type IV. Average absorbance readings (600 nm) from three wells are presented with bars indicating standard error and the results are representative of two independent experiments. […] Average absorbance readings (600 nm) from three wells are presented with bars indicating standard error and the results are representative of two independent experiments. […] The strand colored in cyan reflects the overlap of p10 and p11. Color coded sequences of peptides p4, p6, p10, p10scr1, and p10scr2 are shown. Arginine residues in the p10 peptides are indicated by underlining.
(§2) Plasminogen-depleted human fibrinogen (Calbiochem) was purchased from VWR International. Laminin isolated from Engelbreth-Holm-Swarm murine sarcoma basement membrane and fibronectin isolated from human plasma were purchased from Sigma-Aldrich Canada Ltd. (Oakville, ON). Human collagen types I and IV (Rockland Immunochemicals, Inc.) were purchased from VWR International.
(§3) To test for binding of synthetic Tp0751 peptides p1-p13, p1scr, p6scr, p10scr1, and p10scr2 to the host proteins fibrinogen, fibronectin, laminin, collagen type I, and collagen type IV, initial binding assays were performed as described previously. For dose-dependent binding assays, recombinant proteins were serially diluted 1:2 from either 10 μM to 0.156 μm (Tp0751_78A used for crystallization and Tp0751_78 WT) or 40 μm to 0.625 μm (peptides p4, p6, p10, p11, p10scr1, and p10scr2). Average absorbance readings (600 nm) from three wells are presented with bars indicating standard error and the results are representative of two independent experiments. Plates were read at 600 nm with a BioTek enzyme-linked immunosorbent assay plate reader (Fisher Scientific, Ottawa, ON). All statistical analyses were performed using the Student’s two-tailed t-test. Non-linear regression curves were fitted and apparent dissociation constants (K d) were calculated using GraphPad Prism data analysis software (San Diego, CA).

In experiment [2] the test system is collagen type I. The experiment is described as follows: Initial (single point) binding screen of Tp0751 peptide library to immobilized collagen type I. Particulars: immobilized human collagen type I; absorbance 600 nm, three wells, two independent experiments; Student's two-tailed t-test against non-binding peptides. How it is done:
as §1, §2, §3

In experiment [3] the test system is fibronectin. The experiment is described as follows: Initial (single point) binding screen of Tp0751 peptide library to immobilized fibronectin. Set-up: species or system human. Particulars: absorbance 600 nm, three wells, two independent experiments, Student's two-tailed t-test against non-binding peptides. How it is done: as §1, §2, §3
Experiment [4] concerns the target T1, fibrinogen (Homo sapiens, UniProt P02671+P02675+P02679).
T1 construct: purchased Calbiochem, purchased from VWR International
T1 sequence (P02671 20-629 limits assumed): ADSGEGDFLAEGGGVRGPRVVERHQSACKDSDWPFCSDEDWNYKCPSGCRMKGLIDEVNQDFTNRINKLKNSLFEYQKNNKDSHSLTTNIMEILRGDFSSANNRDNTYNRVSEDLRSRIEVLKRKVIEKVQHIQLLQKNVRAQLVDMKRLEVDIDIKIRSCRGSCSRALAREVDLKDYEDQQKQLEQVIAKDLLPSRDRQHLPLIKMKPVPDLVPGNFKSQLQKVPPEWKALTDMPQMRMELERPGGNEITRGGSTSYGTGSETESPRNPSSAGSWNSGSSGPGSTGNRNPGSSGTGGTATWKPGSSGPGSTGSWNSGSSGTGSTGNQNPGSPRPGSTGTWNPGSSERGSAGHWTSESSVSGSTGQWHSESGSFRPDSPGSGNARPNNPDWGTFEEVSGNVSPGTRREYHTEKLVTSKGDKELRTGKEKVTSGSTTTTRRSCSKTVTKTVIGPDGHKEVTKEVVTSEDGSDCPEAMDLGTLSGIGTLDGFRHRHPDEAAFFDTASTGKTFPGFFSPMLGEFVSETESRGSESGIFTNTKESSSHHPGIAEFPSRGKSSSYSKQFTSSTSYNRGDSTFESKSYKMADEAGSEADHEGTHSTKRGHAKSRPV
T1 sequence (P02675 31-491): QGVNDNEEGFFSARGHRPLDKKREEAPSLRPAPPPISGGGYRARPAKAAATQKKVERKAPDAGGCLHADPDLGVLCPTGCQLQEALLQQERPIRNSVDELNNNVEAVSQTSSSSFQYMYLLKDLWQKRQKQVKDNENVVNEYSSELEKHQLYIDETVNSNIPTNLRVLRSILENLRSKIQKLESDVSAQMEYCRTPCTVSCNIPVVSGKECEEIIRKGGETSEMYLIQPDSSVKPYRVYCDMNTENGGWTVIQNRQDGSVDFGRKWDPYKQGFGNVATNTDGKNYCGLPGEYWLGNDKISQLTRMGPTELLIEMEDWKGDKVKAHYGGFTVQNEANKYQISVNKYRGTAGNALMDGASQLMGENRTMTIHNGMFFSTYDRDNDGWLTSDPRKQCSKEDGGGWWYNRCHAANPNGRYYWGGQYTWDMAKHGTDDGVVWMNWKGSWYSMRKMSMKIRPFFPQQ
T1 sequence (P02679 27-433 limits assumed): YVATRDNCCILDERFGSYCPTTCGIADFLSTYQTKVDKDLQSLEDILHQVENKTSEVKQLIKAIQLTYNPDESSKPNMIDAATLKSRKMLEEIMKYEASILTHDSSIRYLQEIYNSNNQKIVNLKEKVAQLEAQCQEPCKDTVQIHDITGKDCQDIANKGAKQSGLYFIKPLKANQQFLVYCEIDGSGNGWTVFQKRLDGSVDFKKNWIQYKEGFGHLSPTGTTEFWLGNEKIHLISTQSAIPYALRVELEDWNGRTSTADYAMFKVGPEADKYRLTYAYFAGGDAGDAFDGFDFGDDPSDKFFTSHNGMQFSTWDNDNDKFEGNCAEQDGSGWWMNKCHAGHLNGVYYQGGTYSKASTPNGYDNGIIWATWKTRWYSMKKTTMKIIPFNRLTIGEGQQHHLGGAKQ
The experiment is described as follows: Initial (single point) binding screen of Tp0751 peptide library to immobilized fibrinogen. Particulars: absorbance 600 nm, three wells, two independent experiments, Student's two-tailed t-test against non-binding peptides. The procedure:
as §1, §2, §3

For experiment [5], the target named is fibronectin. Kind of experiment: Dose-dependent binding assay to immobilized fibronectin. Particulars: plate binding to immobilized human plasma fibronectin; peptides serially diluted 1:2 from 40 to 0.625; absorbance 600 nm, three wells, representative of two independent experiments; non-linear regression, GraphPad Prism; read-out: Apparent Kd (Fn). The procedure:
as §1, §2, §3

Experiment [6] addresses fibronectin isolated from human plasma (human). Kind of experiment: ELISA; dose-dependent plate binding assay on immobilised fibrinogen or fibronectin; His6-tagged synthetic peptides serially diluted 1:2 from 40 μM to 0.625 μM; absorbance at 600 nm; apparent Kd by non-linear regression (GraphPad Prism). Background: In an ELISA, binding on a coated surface is turned into a signal by an enzyme label.

Experiment [7] addresses T2, plasminogen-depleted human fibrinogen (human, UniProt P02671-2 20-644; P02675 31-491; P02679-2 27-437).
T2 construct: fibrinogen alpha chain, human; fibrinogen beta chain, human; fibrinogen gamma chain, human; also called Fg; source: bought: Calbiochem (through VWR International)
T2 sequence (looked up) 1: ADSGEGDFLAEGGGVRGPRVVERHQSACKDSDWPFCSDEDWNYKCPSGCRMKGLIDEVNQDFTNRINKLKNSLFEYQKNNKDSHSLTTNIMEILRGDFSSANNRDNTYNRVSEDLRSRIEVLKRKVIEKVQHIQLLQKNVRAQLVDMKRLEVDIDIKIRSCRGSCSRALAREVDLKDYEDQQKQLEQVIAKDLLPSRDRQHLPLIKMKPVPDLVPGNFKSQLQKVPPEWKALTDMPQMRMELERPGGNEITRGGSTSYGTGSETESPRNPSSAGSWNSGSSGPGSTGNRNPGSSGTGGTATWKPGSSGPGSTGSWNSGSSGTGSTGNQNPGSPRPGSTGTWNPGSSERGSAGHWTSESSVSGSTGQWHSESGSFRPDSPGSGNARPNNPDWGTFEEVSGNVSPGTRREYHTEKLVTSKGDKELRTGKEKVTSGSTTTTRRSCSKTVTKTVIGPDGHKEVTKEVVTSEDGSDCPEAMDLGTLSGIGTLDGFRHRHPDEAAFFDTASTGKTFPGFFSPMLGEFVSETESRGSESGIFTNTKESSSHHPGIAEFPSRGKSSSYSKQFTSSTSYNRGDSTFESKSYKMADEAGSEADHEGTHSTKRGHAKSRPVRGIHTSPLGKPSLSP
T2 sequence (looked up) 2: T1 sequence (P02675 31-491)
T2 sequence (looked up) 3: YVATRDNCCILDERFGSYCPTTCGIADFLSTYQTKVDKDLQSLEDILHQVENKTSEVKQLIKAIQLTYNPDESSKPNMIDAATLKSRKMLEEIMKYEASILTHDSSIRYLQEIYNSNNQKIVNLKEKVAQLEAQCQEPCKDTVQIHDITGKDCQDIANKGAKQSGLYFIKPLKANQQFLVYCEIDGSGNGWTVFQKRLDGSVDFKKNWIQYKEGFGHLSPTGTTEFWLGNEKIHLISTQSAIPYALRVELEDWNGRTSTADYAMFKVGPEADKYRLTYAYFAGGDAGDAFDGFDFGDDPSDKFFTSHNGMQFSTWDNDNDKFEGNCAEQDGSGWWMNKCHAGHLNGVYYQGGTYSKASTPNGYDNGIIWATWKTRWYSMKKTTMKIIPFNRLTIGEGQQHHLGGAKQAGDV
The experiment is described as above. As to conditions: both partners purified.

Experiment [8] addresses T2, plasminogen-depleted human fibrinogen. The experiment is described as follows: ELISA; dose-dependent plate binding assay on immobilised fibrinogen; recombinant Tp0751 proteins serially diluted 1:2 from 10 μM to 0.156 μM; absorbance at 600 nm; apparent Kd by non-linear regression (GraphPad Prism). As to conditions: both partners purified.

Residue numbers refer to the chain shown, from its start. Numbers in names are those of the source. Ends that are not written are not given here.

With “HHHHHHTSRVKLTISFERSLVNRTRTARFI [p10scr1]”, the “Binding to collagen IV in initial binding screen” value in experiment [1] is reported as “enhanced binding relative to p10”. In experiment [2], the “Binding to collagen I in initial binding screen” value is listed as “enhanced binding relative to p10”. Moreover, the “Binding to fibronectin in initial binding screen” value in experiment [3] was “enhanced binding relative to p10”. For the same molecule, in experiment [4], the “Binding to fibrinogen in initial binding screen” value is “enhanced binding relative to p10”. In addition, the Kd in experiment [5] is 1.3 ± 0.1 µM. For the molecule “Tp0751 synthetic peptide p4 (from UniProt O83732 88-111)”, in experiment [6], the Kd was found to be 2.4 µM. On the same count and under the same terms, the value for “Tp0751 synthetic peptide p6 (from UniProt O83732 116-139)” was 4.5 µM; that for “Tp0751 synthetic peptide p11 (from UniProt O83732 186-209)” was 5.8 µM; that for VAREFNKSRTILFRTSVTRLSTRI [second scrambled version of Tp0751 peptide 10 (p10scr2)] was 7.9 µM.

B1: Tp0751 synthetic peptide p11 (peptide)
peptide: SIRRRLEVTFESHEVIHVRAVEDV
notes: Tp0751 (pallilysin), Treponema pallidum subsp. pallidum; shares its first 10 residues (with the arginine triplet) with p10; source: synthetic peptide; not shown: His6, N-terminal, kept
Turning to B1, the Kd in experiment [7] came out at 9.2 ± 1 µM.

B2: Tp0751_78 WT (domain or fragment)
chain: SHGNAPPAPVGGAAQTHTQPPVQTAMRIALWNRATHGEQGALQHLLAGLWIQTEISPNSGDIHPLLFFDREHAEITFSRASVQEIFLVDSAHTHRKTVSFLTRNTAISSIRRRLEVTFESHEVIHVRAVEDVARLKIGSTSMWDGQYTRYHAGPASAPSP
notes: Tp0751 (pallilysin), Treponema pallidum subsp. pallidum, Ser78 to Pro237 (C-terminus), wild type at Glu199; The methods tell vector (modified pET28a, TEV-cleavable N-terminal His6), host strain and purification only for the E199A constructs; also called wild-type Tp0751_78 WT; source: E. coli, purified
As for B2, the Kd in experiment [8] stood at 6.1 ± 1.7 µM.

B3: Tp0751_78 E199A (Tp0751_78A) (domain or fragment, Treponema pallidum subsp. pallidum, UniProt O83732 78-237, looked up)
chain: B2 chain with E122A
notes: Tp0751 (pallilysin), Treponema pallidum subsp. pallidum, Ser78 to Pro237 (C-terminus), with E199A; The construct used for crystallization; also called pallilysin Ser78 to Pro237 E199A; not shown: His6, N-terminal, cleaved
On to B3, for which, in experiment [8], the Kd came to 2 ± 0.4 µM.

B4: Tp0751 synthetic peptide p4 (peptide)
peptide: GGAAQTHTQPPVQTAMRIALWNRA
notes: Tp0751 (pallilysin), Treponema pallidum subsp. pallidum; its central four residues PVQT (98-101) are printed; also called peptide 4; source: synthetic peptide; not shown: His6, N-terminal, kept
Regarding B4, the Kd in experiment [7] came out at 6.9 ± 0.4 µM.

B5: Tp0751 synthetic peptide p6 (peptide)
peptide: QGALQHLLAGLWIQTEISPNSGDI
notes: Tp0751 (pallilysin), Treponema pallidum subsp. pallidum; its central four residues LWIQ (126-129) are printed; also called peptide 6; source: synthetic peptide; not shown: His6, N-terminal, kept
Regarding B5, the Kd in experiment [7] was 10.5 ± 2 µM.

B6: Tp0751 synthetic peptide p10 (peptide)
peptide: RKTVSFLTRNTAISSIRRRLEVTF
notes: Tp0751 (pallilysin), Treponema pallidum subsp. pallidum; Its composition equals that of the printed scrambled peptide p10scr2; also called peptide 10; source: synthetic peptide; not shown: His6, N-terminal, kept
With B6, in experiment [7], the Kd was found to be 1.6 ± 0.1 µM.
